Like-named read-outs stand apart in the source and are kept apart here.
T1: H-NS wild type (UniProt P0ACF8 1-137)
T1 sequence: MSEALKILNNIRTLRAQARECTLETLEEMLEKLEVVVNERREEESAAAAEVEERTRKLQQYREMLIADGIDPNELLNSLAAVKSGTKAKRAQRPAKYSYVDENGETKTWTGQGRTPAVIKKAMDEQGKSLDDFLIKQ


Assays:
Assay in all cases: EMSA
[1] = target: T2, H-NS wild type;Tn5 HA transposase (Escherichia coli?;Tn5, UniProt P0ACF8;Q46731 1-137;1-476, |E54K;M56A;L372P)
[2] = target: T2, H-NS wild type;Tn5 HA transposase; remark: listed apart in the source
[3] = target: Tn5 transposase delta369 EK/MA (Tn5, UniProt Q46731 1-368, E54K;M56A)
[4] = target: H-NS P116S;Tn5 transposase delta369 EK/MA (Escherichia coli?;Tn5, UniProt P0ACF8;Q46731 1-137;1-368, P116S|E54K;M56A)
[5] = target: H-NS wild type;Tn5 transposase delta369 EK/MA (Escherichia coli?;Tn5, UniProt P0ACF8;Q46731 1-137;1-368, |E54K;M56A)
Tn5 HA transposase [6] = target: T3, Tn5 HA transposase (Tn5, UniProt Q46731 1-476, E54K;M56A;L372P)
Tn5 HA transposase [7] = target: T3, Tn5 HA transposase; remark: listed apart in the source
[8] = target: T2, H-NS wild type;Tn5 HA transposase; remark: listed apart in the source
H-NS wild type = target: T1, H-NS wild type

| Binder | binding signal [1] [fold increase] | binding signal [2] [fold increase] | binding result [3] | binding result [4] | binding result [5] | binding result (Tn5 HA transposase [6]) | binding result (Tn5 HA transposase [7]) | binding result [8] | binding result (H-NS wild type) |
| --- | --- | --- | --- | --- | --- | --- | --- | --- | --- |
| 53 bp ME (WT) (dsDNA) DNA 1: CCCTGCAGGTCGACTGTCTCTTATACACATCTTGAGTGAGTGAGCATGCATGT DNA 2: ACATGCATGCTCACTCACTCAAGATGTGTATAAGAGACAGTCGACCTGCAGGG | < 2 | 11 | binds | no binding | binds | binds |  |  |  |
| 20 bp ME (dsDNA) DNA 1: CTGTCTCTTATACACATCTT DNA 2: AAGATGTGTATAAGAGACAG |  |  |  |  |  |  | binds | binds | no binding |

Source: PMC2632911
